This note sets out measurements from patent publication US20080241162A1 (GENERAL ANTIBODIES AND BIOTECHNOLOGIES S R L, published 2008).

A word on the IC50: it is the point on the concentration scale where inhibition reaches its midpoint.

In the experiment the target is purified recombinant HCV/E2 of 1a genotype (strain H) expressed in CHO cells (Hepatitis C virus genotype 1a (strain H), UniProt P27958 388-664).
Chain of purified recombinant HCV/E2 of 1a genotype (strain H) expressed in CHO cells (P27958 388-664 limits assumed): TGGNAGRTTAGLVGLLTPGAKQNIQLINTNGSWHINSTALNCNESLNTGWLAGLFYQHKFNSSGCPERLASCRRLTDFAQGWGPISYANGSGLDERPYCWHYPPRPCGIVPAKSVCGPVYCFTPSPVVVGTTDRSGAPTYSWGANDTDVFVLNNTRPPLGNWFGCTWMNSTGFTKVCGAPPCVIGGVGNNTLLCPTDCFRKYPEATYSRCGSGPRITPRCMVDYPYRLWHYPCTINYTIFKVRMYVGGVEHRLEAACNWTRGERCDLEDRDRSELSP

B1: human recombinant Fab e509 (Fab, V domains shown)
VH: LLEESGAEVKKPGSSVKVSCKTSGDTFRYGITWVRQAPGQGLEWMGQIMPTFATATYAQRFQGRVTISADESTSTAYLEVRSLRSEDTAVYYCATPRQVTILRGPKALSPWDYWGQGT
VL: not shown
In the case of B1, the IC50 was < 0.035 mg/L.

B2: human recombinant Fab e20 (Fab, V domains shown)
VH: LLEQSGAEVKKPGSSVKVSCKASGDHYGINWVRQAPGQGLEWMGGIIPVFGTTTYAQKFQGRATITADDSTGTAFLELTRLTFDDTAVYFCATPHQLHVLRGGKALSPWDYWGQGT
VL: MAELTQSPATLSVSPGERATLSCRASQSVSSNLAWYQQKRGQAPSLLIYGTSTRATGIPARFSGSGSGTEFTLTISSLQSEDFAVYYCQQYNDWPSTFGQGT
B2: the IC50 came out at 3 mg/L.

B3: human recombinant Fab e301 (Fab, V domains shown)
VH: LLEQSGSEVKKPGSSVRVSCTTSGGTLSDYGFNWLRQAPGQGPEWMGGIIPLFRRTTYGQKFQGRLTITADESTGATYMELSSLRSDDTAVYYCAREKVSVLTGGKSLHYFEYWGKGT
VL: MAELTQSPATLSVSPGERATLSCRASQSVSSRLAWYQQKRGQAPSLLIYDTSSRATGVPARFSASGSGTQFTLTISSLQSEDFALYYCQQYNDWPSTFGQGT
As to B3, the IC50 amounted to 3 mg/L.

B4: human recombinant Fab e137 (Fab, V domains shown)
VH: LLEQSGSEVKVPGSSLKVSCKTSGGTFSTYTFSWVRQAPGQGLEWMGGITPIIGIANYARNFQDRVTITADESTSTVYMEVRRLRSEDTAVYYCAKTSEVTATRGRTFFYSAMDVWGQGT
VL: MAELTQSPSFLSASVGDRVTITCRASQGISNYLAWYQQKPGKAPKLLIYAASTLQSGVPSRFSGSGSWTEFTLTISRLQPEDFATYYCQHLNTYPWTFGQGT
Turning to B4, the half-maximal inhibitory concentration (IC50) was 40 mg/L.

B5: human recombinant Fab e8 (Fab, V domains shown)
VH: LLEQSGAEVKMPGATVKVSCQSSRYTFTSYGIGWVRQAPGQGLEWMGWISGYTHETKYAQSFQGRVTMTAETSTGTAYMELRSLRSDDTATYYCARDGGGRVVVPPTHLRAFDVWGQGT
VL: MAELTQSPGTLSLSPGERATLSCRASHRVNNNFLAWYQQKPGQAPRLLISGASTRATGIPDRFSGSGSGTDFTLTISRLEPDDFAVYYCQQYGDSPLYSFGQGT
For B5, the IC50 is > 40 mg/L.
